Patent US20190233808

Target: FITC-labeled bovine type-1 collagen (Chondrex, Cat# 4001) (UniProt P02453)
Sequence (P02453 162-1217, chain 1 of 2): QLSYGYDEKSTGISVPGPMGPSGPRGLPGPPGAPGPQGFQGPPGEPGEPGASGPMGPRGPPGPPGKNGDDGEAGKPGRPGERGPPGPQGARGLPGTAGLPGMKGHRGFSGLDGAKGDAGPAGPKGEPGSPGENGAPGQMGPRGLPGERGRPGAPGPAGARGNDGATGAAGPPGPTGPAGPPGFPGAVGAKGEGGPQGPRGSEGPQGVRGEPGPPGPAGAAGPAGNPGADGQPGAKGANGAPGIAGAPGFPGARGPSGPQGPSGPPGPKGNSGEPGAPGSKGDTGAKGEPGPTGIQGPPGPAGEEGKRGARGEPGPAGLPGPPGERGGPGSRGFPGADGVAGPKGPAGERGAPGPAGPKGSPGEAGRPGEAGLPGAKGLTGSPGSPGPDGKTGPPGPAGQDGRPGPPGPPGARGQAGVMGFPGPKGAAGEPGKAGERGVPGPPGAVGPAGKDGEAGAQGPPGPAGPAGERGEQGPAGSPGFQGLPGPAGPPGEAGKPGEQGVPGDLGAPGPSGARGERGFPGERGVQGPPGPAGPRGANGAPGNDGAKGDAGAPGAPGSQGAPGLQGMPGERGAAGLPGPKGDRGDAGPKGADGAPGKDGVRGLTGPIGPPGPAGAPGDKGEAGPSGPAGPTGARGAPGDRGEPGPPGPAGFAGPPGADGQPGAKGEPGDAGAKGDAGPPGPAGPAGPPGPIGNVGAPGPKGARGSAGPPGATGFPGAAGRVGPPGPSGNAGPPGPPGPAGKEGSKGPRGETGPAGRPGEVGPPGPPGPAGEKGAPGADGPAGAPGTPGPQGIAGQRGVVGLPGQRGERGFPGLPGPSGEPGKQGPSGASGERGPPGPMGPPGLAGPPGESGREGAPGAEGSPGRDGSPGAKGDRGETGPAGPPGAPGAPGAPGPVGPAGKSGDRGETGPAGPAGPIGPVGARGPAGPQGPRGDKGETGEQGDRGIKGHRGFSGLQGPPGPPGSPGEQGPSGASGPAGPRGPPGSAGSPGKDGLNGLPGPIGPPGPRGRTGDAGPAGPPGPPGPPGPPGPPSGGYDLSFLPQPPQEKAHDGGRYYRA
Sequence (P02453 other isoform, or with tags, fused parts or gaps, chain 2 of 2): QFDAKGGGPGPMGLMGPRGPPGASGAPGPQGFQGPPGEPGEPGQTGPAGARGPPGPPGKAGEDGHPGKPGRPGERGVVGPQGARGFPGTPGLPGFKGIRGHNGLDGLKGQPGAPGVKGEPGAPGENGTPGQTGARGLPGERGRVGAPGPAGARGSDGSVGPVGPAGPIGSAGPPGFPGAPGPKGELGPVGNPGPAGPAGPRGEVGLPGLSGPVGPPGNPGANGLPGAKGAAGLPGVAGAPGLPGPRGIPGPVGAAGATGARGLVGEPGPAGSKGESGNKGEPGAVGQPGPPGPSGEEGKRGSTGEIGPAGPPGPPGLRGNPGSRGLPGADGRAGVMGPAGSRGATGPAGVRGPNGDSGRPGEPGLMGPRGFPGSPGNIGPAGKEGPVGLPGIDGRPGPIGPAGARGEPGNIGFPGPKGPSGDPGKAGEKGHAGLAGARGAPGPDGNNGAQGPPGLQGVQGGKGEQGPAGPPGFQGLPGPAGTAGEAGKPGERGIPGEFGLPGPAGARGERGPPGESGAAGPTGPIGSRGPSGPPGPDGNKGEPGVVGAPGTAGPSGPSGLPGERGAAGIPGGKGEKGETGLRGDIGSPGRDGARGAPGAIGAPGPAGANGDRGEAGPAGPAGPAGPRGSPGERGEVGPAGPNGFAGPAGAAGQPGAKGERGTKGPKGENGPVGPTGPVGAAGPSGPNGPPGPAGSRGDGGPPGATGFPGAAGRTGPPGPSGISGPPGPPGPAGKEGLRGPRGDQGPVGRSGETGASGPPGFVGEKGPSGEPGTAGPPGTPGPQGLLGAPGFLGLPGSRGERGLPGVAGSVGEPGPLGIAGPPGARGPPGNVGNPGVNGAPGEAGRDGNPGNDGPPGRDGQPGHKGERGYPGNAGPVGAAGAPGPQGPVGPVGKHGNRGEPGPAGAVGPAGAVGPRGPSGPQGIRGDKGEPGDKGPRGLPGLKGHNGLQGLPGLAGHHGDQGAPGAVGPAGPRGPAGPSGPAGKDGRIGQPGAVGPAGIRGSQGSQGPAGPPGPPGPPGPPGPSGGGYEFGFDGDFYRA

Q: How did the “collagen degradation on SDS PAGE” value turn out when trypsin (TPCK-treated) was run?
A: did not show degradation of type-1 collagen
